From patent publication US5851528 come the findings set out here.

The target of assay [1] is C3/C5 convertases.
Assay [2] addresses C3/C5 convertases. This is another data set of the same source.
Assay [3] addresses C5 convertase (formed in human serum) (human).

As for “CAB-2 (complement activation blocker-2), recombinant chimeric protein encoded by the MCP-DAF expression vector”, the IC50, inhibition of classical pathway complement-mediated lysis of IgM-sensitized sheep RBC by human serum in assay [1] was 30 nM. Also, the IC50, inhibition of alternative pathway complement-mediated lysis of unsensitized guinea pig RBC by human serum in assay [2] amounted to 100 nM. Further, in assay [3], the IC50, inhibition of C5a production in human serum (competition radioimmunoassay for C5a desArg) came to 300 nM.

Consider “mixture of sMCP + sDAF added together on an equal molar basis (pool or library)”, for which the IC50, inhibition of classical pathway complement-mediated lysis of IgM-sensitized sheep RBC by human serum in assay [1] worked out at 200 nM.

On to “soluble DAF (sDAF), soluble decay accelerating factor (from UniProt P08174)”, for which the IC50, inhibition of classical pathway complement-mediated lysis of IgM-sensitized sheep RBC by human serum in assay [1] is 100 nM.

On to “soluble MCP (sMCP), soluble membrane cofactor protein recombinant protein (from UniProt P15529-3)”, for which, in assay [1], the IC50, inhibition of classical pathway complement-mediated lysis of IgM-sensitized sheep RBC by human serum is 7000 nM. Further, in assay [2], the IC50, inhibition of alternative pathway complement-mediated lysis of unsensitized guinea pig RBC by human serum came out at 350 nM. Besides, in assay [3], the IC50, inhibition of C5a production in human serum (competition radioimmunoassay for C5a desArg) was 5000 nM.
